The values that follow come from ChEMBL document CHEMBL3525898, “Pharmacogenomics of gemcitabine metabolism: functional analysis of genetic variants in cytidine deaminase and deoxycytidine kinase” (Drug Metab Dispos, 2013).

Substrate in the data set: Nc1ccn([C@@H]2O[C@H](CO)[C@@H](O)C2(F)F)c(=O)n1
The experiment in a line: Activity of human recombinant N-terminal His-SUMO fused wild type CDA expressed in Escherichia coli BL21(DE3) cells assessed as 2',2'-difluorodeoxyuridine formation by liquid chromatography-tandem mass spectrometry. Format: ADME.

The term Km denotes the concentration of substrate that gives half-maximal velocity. By Vmax is commonly meant the rate approached at saturating substrate.

B1: Cytidine deaminase (Homo sapiens) (protein)
chain: MAQKRPACTLKPECVQQLLVCSQEAKKSAYCPYSHFPVGAALLTQEGRIFKGCNIENACYPLGICAERTAIQKAVSEGYKDFRAIAIASDMQDDFISPCGACRQVMREFGTNWPVYMTKPDGTYIVMTVQELLPSSFGPEDLQKTQ
As to B1, the Michaelis constant (Km) is 630 µM and the Vmax is 0.187 µmol/min/mg.
